Biological target: T1, C-terminally His-tagged human ECRG4(32–148) (human, UniProt Q9H1Z8 32-148)
T1 chain: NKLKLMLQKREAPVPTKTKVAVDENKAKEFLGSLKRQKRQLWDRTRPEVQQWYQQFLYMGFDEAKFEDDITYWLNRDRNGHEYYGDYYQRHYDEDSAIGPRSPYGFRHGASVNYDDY
Assay: SPR

Kd: 14.2 nM
B1: 2 × CTLD–Fc (two human LOX-1 CTLDs in tandem, Fc-fused) (Fc fusion)
chain: not shown

— PMC5840397 (2018)
